Laboratory results from patent publication US20220048967A1 (published 2022).
Changes are numbered by the printed parent chain. Numbered stars: 1 amine (or outer) side, 2 acyl side, 3 side chain; on linkers, the order of the positions; unused ones are H or OH. Square brackets hold non-standard residues; d marks the D form. Side chains are listed from the residue outwards. Ends that are not written are not given here. * marks the point of attachment. C20 diacid = O=C(O)CCCCCCCCCCCCCCCCCCC(=O)*; C18 diacid = O=C(O)CCCCCCCCCCCCCCCCC(=O)*; αMePhe(2-F) = C[C@](N)(Cc1ccccc1F)C(=O)O; γGlu = O=C(O)[C@H](CCC(=O)[*:2])N[*:1]; Desaminohistidyl = O=C(CCc1c[nH]cn1)*; Desaminotyrosyl = O=C(CCc1ccc(O)cc1)*; αMeF = C[C@](N)(Cc1ccccc1)C(=O)O; αMeP = C[C@@]1(C(=O)O)CCCN1; AEEA = NCCOCCOCC(=O)O; Aib = CC(C)(N)C(=O)O

B1: Example 197 (peptide)
peptide: Y[αMeP]EGTFTSDYSILLDEK([AEEA-AEEA-γGlu-C18 diacid])AQQAFIEYLIEGGPSSG-NH2
modifications: N-terminus assumed
SMILES: CC[C@H](C)[C@H](NC(=O)[C@H](CC(C)C)NC(=O)[C@H](Cc1ccc(O)cc1)NC(=O)[C@H](CCC(=O)O)NC(=O)[C@@H](NC(=O)[C@H](Cc1ccccc1)NC(=O)[C@H](C)NC(=O)[C@H](CCC(N)=O)NC(=O)[C@H](CCC(N)=O)NC(=O)[C@H](C)NC(=O)[C@H](CCCCNC(=O)COCCOCCNC(=O)COCCOCCNC(=O)CC[C@H](NC(=O)CCCCCCCCCCCCCCCCC(=O)O)C(=O)O)NC(=O)[C@H](CCC(=O)O)NC(=O)[C@H](CC(=O)O)NC(=O)[C@H](CC(C)C)NC(=O)[C@H](CC(C)C)NC(=O)[C@@H](NC(=O)[C@H](CO)NC(=O)[C@H](Cc1ccc(O)cc1)NC(=O)[C@H](CC(=O)O)NC(=O)[C@H](CO)NC(=O)[C@@H](NC(=O)[C@H](Cc1ccccc1)NC(=O)[C@@H](NC(=O)CNC(=O)[C@H](CCC(=O)O)NC(=O)[C@]1(C)CCCN1C(=O)[C@@H](N)Cc1ccc(O)cc1)[C@@H](C)O)[C@@H](C)O)[C@@H](C)CC)[C@@H](C)CC)C(=O)N[C@@H](CCC(=O)O)C(=O)NCC(=O)NCC(=O)N1CCC[C@H]1C(=O)N[C@@H](CO)C(=O)N[C@@H](CO)C(=O)NCC(N)=O
B2: Example 198 (peptide)
peptide: [dY][αMeP]EGTFTSDYSILLDEK([AEEA-AEEA-γGlu-C18 diacid])AQQAFIEYLIEGGPSSG-NH2
modifications: N-terminus assumed
SMILES: CC[C@H](C)[C@H](NC(=O)[C@H](CC(C)C)NC(=O)[C@H](Cc1ccc(O)cc1)NC(=O)[C@H](CCC(=O)O)NC(=O)[C@@H](NC(=O)[C@H](Cc1ccccc1)NC(=O)[C@H](C)NC(=O)[C@H](CCC(N)=O)NC(=O)[C@H](CCC(N)=O)NC(=O)[C@H](C)NC(=O)[C@H](CCCCNC(=O)COCCOCCNC(=O)COCCOCCNC(=O)CC[C@H](NC(=O)CCCCCCCCCCCCCCCCC(=O)O)C(=O)O)NC(=O)[C@H](CCC(=O)O)NC(=O)[C@H](CC(=O)O)NC(=O)[C@H](CC(C)C)NC(=O)[C@H](CC(C)C)NC(=O)[C@@H](NC(=O)[C@H](CO)NC(=O)[C@H](Cc1ccc(O)cc1)NC(=O)[C@H](CC(=O)O)NC(=O)[C@H](CO)NC(=O)[C@@H](NC(=O)[C@H](Cc1ccccc1)NC(=O)[C@@H](NC(=O)CNC(=O)[C@H](CCC(=O)O)NC(=O)[C@]1(C)CCCN1C(=O)[C@H](N)Cc1ccc(O)cc1)[C@@H](C)O)[C@@H](C)O)[C@@H](C)CC)[C@@H](C)CC)C(=O)N[C@@H](CCC(=O)O)C(=O)NCC(=O)NCC(=O)N1CCC[C@H]1C(=O)N[C@@H](CO)C(=O)N[C@@H](CO)C(=O)NCC(N)=O
B3: Example 219 (peptide)
peptide: Y[Aib]EGT[αMePhe(2-F)]TSDYSIXLDEK([AEEA-AEEA-γGlu-C18 diacid])AQ[Aib]EFI[dE]YLIEGGPSSG-NH2
modifications: not fully specified (residue 13); printed as Y-Aib-EGT-αMeF(2F)-TSDYSI-αMeF-LDEK((2-[2-(2-Amino-ethoxy)-ethoxy]-acetyl)2-(γ-Glu)-CO-(CH2)16-CO2H)AQ-Aib-EFI-(D-Glu)-YLIEGGPSSG-NH2
B4: Example 220 (peptide)
peptide: Y[Aib]EGT[αMePhe(2-F)]TSDYSIXLDEK([AEEA-AEEA-γGlu-C18 diacid])AQ[Aib]EFI[dE]YLIEGG-NH2
modifications: not fully specified (residue 13); printed as Y-Aib-EGT-αMeF(2F)-TSDYSI-αMeF-LDEK((2-[2-(2-Amino-ethoxy)-ethoxy]-acetyl)2-(γ-Glu)-CO-(CH2)16-CO2H)AQ-Aib-EFI-(D-Glu)-YLIEGG-NH2
B5: Example 224 (peptide)
peptide: YXEGTXTSDYSIXLDEKAQXEFIXYLIEGGPSSGAPPPS
modifications: Y-Aib-EGT-αMeF(2F)-TSDYSI-Aib-LDEK((2-[2-(2-Amino-ethoxy)-ethoxy]-acetyl)2-(γ-Glu)-CO-(CH2)18-CO2H)AQ-Aib-EFI-(D-Glu)-YLIEGGPSSGAPPPS-NH2
B6: Example 228 (peptide)
peptide: Y[Aib]EGT[αMeF]TSDYSIXLDKK([AEEA-AEEA-γGlu-C20 diacid])AQ[Aib]EFI[dE]YLIEGGPSSG-NH2
modifications: not fully specified (residue 13); printed as Y-Aib-EGT-αMeF-TSDYSI-αMeF-LDKK((2-[2-(2-Amino-ethoxy)-ethoxy]-acetyl)2-(γ-Glu)-CO-(CH2)18-CO2H)AQ-Aib-EFI-(D-Glu)-YLIEGGPSSG-NH2
B7: Example 234 (peptide)
peptide: B5 peptide with Y10X, X13L, E16X
modifications: Y-Aib-EGT-αMeF(2F)-TSD-4Pal-SILLD-Dab-K((2-[2-(2-Amino-ethoxy)-ethoxy]-acetyl)2-(γ-Glu)-CO-(CH2)16-CO2H)AQ-Aib-EFI-(D-Glu)-YLIEGGPSSGAPPPS-NH2
B8: Example 1 (peptide)
peptide: B5 peptide
modifications: Aib2, αMeF(2F)6, αMeL13, K17 conjugated to (2-[2-(2-Amino-ethoxy)-ethoxy]-acetyl)2-(γ-Glu)-CO-(CH2)18-CO2H, Aib20, D-Glu24, C-terminal amide (NH2)
B9: Example 2 (peptide)
peptide: B5 peptide with E16X
modifications: Aib2, αMeF(2F)6, αMeL13, Orn16, K17 conjugated to (2-[2-(2-Amino-ethoxy)-ethoxy]-acetyl)2-(γ-Glu)-CO-(CH2)16-CO2H, Aib20, D-Glu24, C-terminal amide (NH2)
B10: Example 4 (peptide)
peptide: B5 peptide with Y10X, E16X, Y25X
modifications: Aib2, αMeF(2F)6, 4Pal10, αMeL13, Orn16, K17 conjugated to (2-[2-(2-Amino-ethoxy)-ethoxy]-acetyl)2-(γ-Glu)-CO-(CH2)16-CO2H, Aib20, D-Glu24, αMeY25, C-terminal amide (NH2)
B11: Example 338 (peptide)
peptide: FXEGTFTSDYSIXLDKKAQXEFIEYLIAGGPSSGAPPPS
modifications: not fully specified; Aib2, αMeL13, K17 conjugated to (2-[2-(2-Amino-ethoxy)-ethoxy]-acetyl)2-(γ-Glu)-CO-(CH2)18-CO2H, Aib20, C-terminal amide (NH2)
B12: Example 356 (peptide)
peptide: B11 peptide with F1X, E21A, E24X, A28E
modifications: D-Tyr1, Aib2, αMeL13, K17 conjugated to (2-[2-(2-Amino-ethoxy)-ethoxy]-acetyl)2-(γ-Glu)-CO-(CH2)18-CO2H, Aib20, D-Glu24, C-terminal amide (NH2)
B13: Example 357 (peptide)
peptide: B5 peptide with Y1X, X6F, E16X, E21A
modifications: D-Tyr1, Aib2, αMeL13, Orn16, K17 conjugated to (2-[2-(2-Amino-ethoxy)-ethoxy]-acetyl)2-(γ-Glu)-CO-(CH2)18-CO2H, Aib20, D-Glu24, C-terminal amide (NH2)
B14: Example 360 (peptide)
peptide: XXEGTFTSDYSIXLDXKAQXAFVEYLIEGGPSSGAPPPS
modifications: D-Tyr1, Aib2, αMeL13, Orn16, K17 conjugated to (2-[2-(2-Amino-ethoxy)-ethoxy]-acetyl)2-(γ-Glu)-CO-(CH2)18-CO2H, Aib20, C-terminal amide (NH2)
B15: Example 361 (peptide)
peptide: B14 peptide with X16K, E24X, E28A
modifications: D-Tyr1, Aib2, αMeL13, K17 conjugated to (2-[2-(2-Amino-ethoxy)-ethoxy]-acetyl)2-(γ-Glu)-CO-(CH2)18-CO2H, Aib20, D-Glu24, C-terminal amide (NH2)
B16: Example 362 (peptide)
peptide: B14 peptide with E24X, E28A
modifications: D-Tyr1, Aib2, αMeL13, Orn16, K17 conjugated to (2-[2-(2-Amino-ethoxy)-ethoxy]-acetyl)2-(γ-Glu)-CO-(CH2)18-CO2H, Aib20, D-Glu24, C-terminal amide (NH2)
B17: Example 364 (peptide)
peptide: B14 peptide with E24X, E28A
modifications: D-Tyr1, Aib2, αMeL13, Orn16, K17 conjugated to (2-[2-(2-Amino-ethoxy)-ethoxy]-acetyl)2-(γ-Glu)-CO-(CH2)16-CO2H, Aib20, D-Glu24, C-terminal amide (NH2)

target: T1, human gastric inhibitory peptide receptor (GIPR) (human, UniProt P48546 22-466); experiment: cell-based or functional assay
T1 sequence (looked up): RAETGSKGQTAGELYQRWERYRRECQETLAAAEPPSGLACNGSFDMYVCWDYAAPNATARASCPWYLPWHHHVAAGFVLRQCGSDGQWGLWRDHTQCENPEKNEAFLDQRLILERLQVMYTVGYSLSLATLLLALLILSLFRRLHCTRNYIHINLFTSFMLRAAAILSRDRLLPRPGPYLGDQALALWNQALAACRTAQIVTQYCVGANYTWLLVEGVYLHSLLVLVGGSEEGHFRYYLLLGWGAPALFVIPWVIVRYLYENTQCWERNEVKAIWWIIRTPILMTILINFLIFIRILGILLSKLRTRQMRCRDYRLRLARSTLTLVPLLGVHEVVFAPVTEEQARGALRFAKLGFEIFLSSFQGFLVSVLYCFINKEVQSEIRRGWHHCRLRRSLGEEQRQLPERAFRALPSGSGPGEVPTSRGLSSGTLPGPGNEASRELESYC

Binder	hGIPR cAMP EC50 ratio	hGIPR cAMP Rel EC50
B1	0.855	0.211 nM
B2	< 0.00602	> 30 nM
[Desaminotyrosyl][Aib]EGTFTSDYSILLDEK([AEEA-AEEA-γGlu-C20 diacid])AQQAFIEYLIEGGPSSGAPPPS-NH2 [Example 199]	< 0.00602	> 30 nM
[Desaminotyrosyl]AEGTFTSDYSILLDEK([AEEA-AEEA-γGlu-C20 diacid])AQQAFIEYLIEGGPSSGAPPPS-NH2 [Example 200]	0.0146	12.3 nM
[Desaminohistidyl][αMeP]EGTFTSDYSILLDEK([AEEA-AEEA-γGlu-C20 diacid])AQQAFIEYLIEGGPSSGAPPPS-NH2 [Example 201]	< 0.00602	> 30 nM
B3	5.86	0.0341 nM
B4	6.3	0.0315 nM
B5	3.52	0.0545 nM
B6	3.86	0.0503 nM
B7	3.83	0.0372 nM

target: human GLP-1 receptor (GLP-1R) (human, UniProt P43220 24-463); experiment: cell-based or functional assay

Binder	hGLP1R cAMP EC50 ratio	hGLP1R cAMP Rel EC50
B1	0.189	0.248 nM
B2	0.337	0.139 nM
[Desaminotyrosyl][Aib]EGTFTSDYSILLDEK([AEEA-AEEA-γGlu-C20 diacid])AQQAFIEYLIEGGPSSGAPPPS-NH2 [Example 199]	1.11	0.0422 nM
[Desaminotyrosyl]AEGTFTSDYSILLDEK([AEEA-AEEA-γGlu-C20 diacid])AQQAFIEYLIEGGPSSGAPPPS-NH2 [Example 200]	0.573	0.0818 nM
[Desaminohistidyl][αMeP]EGTFTSDYSILLDEK([AEEA-AEEA-γGlu-C20 diacid])AQQAFIEYLIEGGPSSGAPPPS-NH2 [Example 201]	1.22	0.0385 nM
B3	1.03	0.0403 nM
B4	1.36	0.0312 nM
B5	1.06	0.0349 nM
B6	1.1	0.0282 nM
B7	0.317	0.0926 nM

target: human GLP-1 receptor (human, UniProt P43220 24-463); experiment: cell-based or functional assay

Binder	hGLP1R GTPgS % Top	hGLP1R GTPgS Rel EC50
B8	91.1%	0.235 nM
B9	95.9%	0.642 nM
B10	86.9%	0.245 nM

target: Pro-Link-tagged Human GLP-1R (human, UniProt P43220 24-463); experiment: cell-based or functional assay

Binder	hGLP1R B-Arrestin2 % Top	hGLP1R B-Arrestin2 Rel EC50
B8	105%	5 nM
B9	96.1%	8.82 nM
B10	92.4%	4.8 nM
B11	47%	18.9 nM
B12		> 10500 nM
B13	18.2%	118 nM
B14	25.8%	39.5 nM
B15	20.2%	269 nM
B16		> 11000 nM
B17		> 12000 nM
